Columns and labels:
purified protein [1] = substrate: CC=O; assay: purified protein; format: biochemical, Geobacillus stearothermophilus; details: 0.3 mM NADH, 2.5 mM MgSO4, 100 mM HEPES pH 7, 50°C, acetaldehyde 0.01–0.14 mM
purified protein [2] = substrate: CCCC=O; assay: purified protein; format: biochemical, Geobacillus stearothermophilus; details: 0.3 mM NADH, 2.5 mM MgSO4, 100 mM HEPES pH 7, 50°C, butyraldehyde 0.8–3 mM

B1: ADH (ADH-HT) (Geobacillus stearothermophilus) (protein)
chain: MKAAVVEQFKEPLKIKEVEKPTISYGEVLVRIKACGVCHTDLHAAHGDWPVKPKLPLIPGHEGVGIVEEVGPGVTHLKVGDRVGIPWLYSACGHCDYCLSGQETLCEHQKNAGYSVDGGYAEYCRAAADYVVKIPDNLSFEEAAPIFCAGVTTYKALKVTGAKPGEWVAIYGIGGLGHVAVQYAKAMGLNVVAVDIGDEKLELAKELGADLVVNPLKEDAAKFMKEKVGGVHAAVVTAVSKPAFQSAYNSIRRGGACVLVGLPPEEMPIPIFDTVLNGIKIIGSIVGTRKDLQEALQFAAEGKVKTIIEVQPLEKINEVFDRMLKGQINGRVVLTLEDK
notes: codon-optimised synthetic gene in pET-22b (NdeI/XhoI), C-terminal His-tag, expressed in E. coli, IMAC purified
- Km (purified protein [1]): 65 ± 5 µM
- kcat (purified protein [1]): 141.44 ± 14.52 s⁻¹
- Km (purified protein [2]): 1430 ± 160 µM
- kcat (purified protein [2]): 49.16 ± 3.8 s⁻¹

From paper PMC5066087, “In Vitro Bioconversion of Pyruvate to n-Butanol with Minimized Cofactor Utilization” (Frontiers in Bioengineering and Biotechnology, 2016)
